The DeepSol protein solubility set

assay: soluble on expression in E. coli; label from the status in PepcDB or PDB records

Sequence | soluble on expression in E. coli
MQVINLKYPVALSQIPEGPIVLALGFFDGVHRGHQQVVATARQAAQAQHAKLAVMTFDQHPSVVFKHTDPQQVRYLTTIDQKTALMSELGVDILYVLHFDATVGAMPPQTFVDQLIVGLHAQTVVAGFDYTYGPAEIANMQRLNDYGHNRFEIIEVPKAELDAEKISSTRIRRALDAGDIDTANRLLGYQYETAGEVVHGEARGRTLGFPTANVAHGPNTRVPGIGIYATMVQIGTRWVMGMASVGRNVTFGDHRPITVEIYLLDFRGDLYGHNLTVRWGHRMRGEIKFAGADALVAQLKRDEQNTRDYYVAHPFVVAPRIQVAQQSNRLEAQ | not soluble
VTLAAEPHPAPPQQPTVAWSEPDVDRRVEFWPTVAIRSALESGDIATWQRIAAALKRDPYGRTARQVEEVLEGIPATGIANAFWEVLDRARTHLDANERAEVARQVGLLLDRSGLQRQEFASRIGVTAQDLTAYLDGIVSPSASLMIRMRRLSDRFVRAKSVRAADS | soluble
MSLAADYTEQDAMRVQAVKTYIDNVLQEGRSQIKTTPLLADGINTTTRKPVEWIYPDGRTATISNFANQQNFLRALTAMSVVTEDQRYQLEAVRITRYFMDNFIADNGLFYWGGHRFVNLDTLELEGPQNKNSVHELKNHYPYYPFLYHVDPHATERYIKAFWQAHVEDWQSLDMGRHGSYSKNYDDKVFHRPIPASLVDQSKLPIMPETKGLTFINAGSDLIYAAYQLDWLAPSANAQGSAAWGQYLMTQYKLAKHPKTGAPVYQFTSPKKREWPPQSDKDTNSKYGDRAARQFGPELGNIAREGNVLFKSNDKSIVFNNALIELHLAEQRNDAAIREQVVDALLNFYRLAYNPENGTIKPIFSDGTSIEGIPLARDGYYGPKGRVFNAHKPKTEEYLLPILRAYRLQADPELWQLAANMTHHYGWGSLGNDAKAKPTLNMQLSSVSPMTLFSAIELYQITQQPEYLEFARAAADKLVEKRFVRGYFLANPRYLNASIDAIEPLALLTLDATLKGKTAQVAPYLSGSGYIHGEFAGKENAYDTNEIYKQTREGHHHHHH | soluble
MVVLHVKRGDESQFLLQAPGSTELEELTAQVARVYNGRLKVHRLCSEMEELAEHGVFLHPNMQGLTDEQIEELKLKDEWGEKCVPSGGSVFTKDEIGRRNGQAPNEKMKQVLKKTVEEAKAIVSKKQVEAGVFVTMEMVKDALDQLRGAVMIVYPMGLPPYDPIRMEFENKEDLSGTQAALEVIQESEAQLWWAAKELRRTKKLSDYVGKNEKTKIIVKIQQRGQGAPAREPVISSEEHKQLMLFYHRRQEELKKLEENDDDSCLNSPWADNTALKRHFHGVKDIKWRPR | soluble
MGSDKIHHHHHHMLAFAARTVVKPLGLLKPSSLMKVSGRFKAHQDALPRLPVPPLQQSLDYYLKALQPIVSEEEWAHTKQLVDEFQTSGGVGERLQKGLERRAKKMENWLSEWWLKTAYLQFRQPVVIYSSPGVILPKQDFVDLQGQLRFAAKLIEGVLDFKSMIDNETLPVEFLGGQPLCMNQYYQILSSCRVPGPKQDSVVNFLKSKRPPTHITVVHNYQFFELDVYHSDGTPLTSDQIFVQLEKIWNSSLQSNKEPVGILTSNHRNTWAKAYNNLIKDKVNRESVNSIQKSIFTVCLDKQVPRVSDDVYRNHVAGQMLHGGGSKFNSGNRWFDKTLQFIVAEDGSCGMVYEHAAAEGPPIVALVDHVMEYTKKPELVRSPMVPLPMPKKLRFNITPEIKNDIEKAKQNLSIMIQDLDIMMLTFHHFGKDFPKSEKLSPDAFIQVALQLAYYRIYGQACATYESASLRMFHLGRTDTIRSASIDSLAFVKGMGDSTVPEQQKVELLRKAVQAHRAYTDRAIRGEAFDRHLLGLKLQAIEDLVSMPDIFMDTSYAIAMHFNLSTSQVPAKTDCVMFFGPVVPDGYGICYNPMEAHINFSVSAYNSCAETNAARMAHYLEKALLDMRTLLQNHPRAKL | not soluble
ISFVIAAPEAIAAAATDLASIGSTIGAANAAAAANTTAVLAAGADQVSVAIAAAFGAHGQAYQALSAQAATFHIQFVQALTAGAGSYAAAEAASAASITSPLLDAINAPFLAALGRPLIGNGADGAPGTGAAGGAGGLLFGNGGAGGSGAPGGAGGLLFGNGGAGGPGASGGALG | not soluble
MTFVPLNPIPLKDRTSMIFLQYGQIDVLDGAFVLIDKTGIRTHIPVGSVACIMLEPGTRVSHAAVRLASTVGTLLVWVGEAGVRVYSSGQPGGARADKLLYQAKLALDDDLRLKVVRKMYELRFREPPPARRSVEQLRGIEGSRVRATYALLAKQYGVKWHGRNYDPKDWEKGDVVNRCISAATSCLYGISEAAILAAGYAPAIGFIHSGKPLSFVYDIADIIKFESVVPKAFEIAARHPAEPDKEVRLACRDIFRSSKLTGKLIPLIEEVLAAGEIEPPQPAPDMLPPAIPEPESLGDSGHRGHG | not soluble
VHEGHRKRLKERFLREGLDSFEQHQVLELLLFFSIPRKDTNELAHTLLNRYGSLSGVFEADPKDLATTPGIGENSAILLSLIPHLSRRYLNDKWRDKPELNSSAKAGQYAISLFAGRNYEVFYVICLDAQNRVNYAELVHEGTINEAPVYPRIIVETALRHKANSVILAHNHPGGTLNPSKADIEATKRIKAALEAISIKVVDHIIVCGGQYVSFAEKGLLSG | soluble
MTKKYLTFDCYGTLINTEPLYQWVANLGLAVGLDPLTVRKAYATYEDDPASVNPYLDYSTLVRADLKHLDRLFEQRHFFESHYVECLEVQRHLLPYADVIPTLTAWQQLGYQLIIMSNSSWDIMPANIAALKVSFTAVVTAEDIQAYKPALAFFETVQERFKLTADNHWHIARGYESDVVPASAMQWPMIWINRDQRQPTSSERPTHMVTDLAAVKQWVN | not soluble
EFGQNRATLLASIDVALEHAELFAADDDQMGLFLDESFSIKPKYVETEELPLVDLLAFEKETLGIYFSNHPLSAFRKQLTAQGAVSILQAQRAV | not soluble
SAPSQAPSRDRAGQEDEDRWEARGDRKARKPLVEKKRRARINESLQELRLLLAGTEVQAKLENAEVLELTVRRVQGALRGRAREREQLQAEASERFAAGYIQCMHEVHTFVSTCQAIDATVSAELLNHLLESMPLREGSSFQDLLGDSLAGLPGGSGRSSWPPGGSPESPLSSPPGPGDDLCSDLEEIPEAELNRVPAEGPDLVSTSLGSLTAARRAQSVWRPW | soluble
STGKKPKHHVLSHDIIPASKPIAEKLQIQPESPVVELKRILYNDDQPLTFEVTHYPLDLFPGIDTFIADGVSMHDILKQQYKVVPTHNTKLLNVVYAQQEESKYLDCDIGDALFEIDKTAFTSNDQPIYCSLFLMHTNRVTFTINSPYT | soluble
MSTINYDLSRIKALAFDVDGVLSSTTVPLHPSGEPMRTVNIKDGYAIQLAVKKGLHIAIITGGRTEAVRIRFAALGVKDLYMGSAVKIHDYRNFRDKYGLSDDEILYMGDDVPDIEVMRECGLPCCPKDAVPEVKSVAKYISYADGGRGCGRDVVEQVLKAHGKWMAEDAFGW | not soluble
MRIEDKLYLNRYRTDEENPHLKIKDESICAEKCSDRPCVSCCPADVYEWTESGMEVKFEGCLECGTCRIVCPFGNIEWNYPRGNYGVLYKFG | soluble
MSGAGKKIADVAFKASRTIDWDGMAKVLVTDEARREFSNLRRAFDEVNTQLQTKFSQEPEPIDWDYYRKGIGAGIVDKYKEAYDSIEIPKYVDKVTPEYKPKFDALLVELKEAEQKSLKESERLEKEIADVQEISKKLSTMTADEYFEKHPELKKKFDDEIRNDNWGY | soluble
NTMRSFILRARSAPTDSQRLLDEIGGKCHTEILAHCMMNSLFTAQSHREDVVIHLVLESTRDYSRTITVEANEISDVGGFHEAALIALLVKALDASVGMGKEQTRVVQPGLTVRTISFEALLGELAEHHSLYMMDKKGDSIRDIKIGPNPCFILTDHIPMPKKSGNSMKRLGVEKISLGPKMLFASQCVTLIHNEIDHQEA | not soluble
MGSDKIHHHHHHMELTESIRLLFPPEERAQLDISAIKGDASNRQYYRVTGQGSVSVVCADPAFRATAVENYPFLIVRDLFARHGIRVPELLGMVHEQGLLRLEDCGDLMLQDEVPLLDRNRLSARYRQVIDLLVRIQSIRPDKDALTTTLPFSLSFDHEKLMFEFDFFIEHALNGYFAGRLGKPAIARLREEFINICDLLVLPKHFVLNHRDFHSRNIMLFRAEPVVIDFQDARLGLPQYDAVSLLRDSYVRLDPGMVNELKRYHFNQLVQLGLTSMGEAEYLRLFDLMAFQRNVKAIGTFCYQTTVAGNRTFEPSIAATLSYLREYIEARPELAMAGRLLKPIIPEISR | not soluble
MGSDKIHHHHHHMLGLPGEMQYVPGIHSPNEGPRPMTIQRKQTREVRIGKVRIGGANPVVVQSMTNTDTRDVEQTVEQIRQLQEAGCEIVRLAVLNEDAAWAIKPIRSQVSVPLVADIHFDHRLAVSALEAGVDALRINPGNIGTRAAVDRVVDAAKAHNAVIRIGVNSGSLETDLIDQYGGPTPEAMVESAFRHIRMLEDRNFGDIKVSLKSSSVSRCIEAYTLLSAKCDYPLHIGVTEAGTVLRGSIKSAVGLGVLLWQGIGDTLRVSLTSDPVAEMAVAWEILRSLGLRSRGPEIIACPTCGRCEIGLIALAEEVERRLEGETESFKVAVMGCVVNGPGEAREADLGIAGGRDKGIIFRKGEIVRTVKGGSNLLAAFMEELDTFLAHRRAERKDD | not soluble
MKSSMAMIKHKKELVEYARHLKLPNLAEHVGVILHEAQEKQLTYSEFLANCLAREIQGRERKSYLTRLKLSGLPAKYDLDLYDYDRAEGMDNRRLRELRELVWVNQAYNLLLVGPSGTGKTFIAAGLVYEAVKAGYEAYLMTLEELLTCLKTKEVSAHAMKTYKRIMKARLLAIDDATLFPLKREEAVLLFKLVNDFQERTSLIITANKALTRWLETLEDEAVTAALLDRLLYCCEIIRLGGTSYRMQNRKTIFSNQNTDIGTLEHHHHHH | not soluble
MSLTAYLHIGTTNTGNQEKQGFLMQNEEKLLQKAYIYPKSLRVANRHWALVDMVLELVQKEDILKKESVLSHITNERLLRAIENFKSESALHKDKKFIFSAEGIVWDFSTKKHVEILEKIMRELGFTQIYIIVYFRDTLGYLNSHCSQDHKNNMGYYSADFAPQDHPRKYIFDYEWICKTHAEVFGEENLIVRLLREDYVGGTLLKDFVYHLGLEWDESFVLKQTKNESFNLLGMELMSRLNQKDLKQDNLNSLLFMARRKFEGSKEKRLKFAVQKDIAKAYVDYFASSLEWVKNKYFPHKNSLFTPVNWEEYEQNYTLTHMLSKDWDDVADFIAQIIVSKNEIISSLKEQLELAREGHHHHHH | soluble
MTDVEKPVDNSGTLIDDILSPLKGVNEDLNVLVLGGDKVNNNTDTMMLVNFKPSTSKVSILSIPRDTKVKINGKKAKINSAYPTGGGELAVQTVSELFGIDVKYYVFVDTSSFRKIIDILGGVDYYVPVDMDYDDPLQGLSIHIKKGQHHFDGAMAEKFMRFRQYNNGRVNEYYDGSDLKRIDAQQNFIRELVRQKLNIFYLTKVDDIASTIFSNIDTNLNMSEVLKLTGSVSKVQADSINMLKVPGKSVLDGAWYYVIDSQETDKIINEYFRTRYKLEHHHHHH | soluble
MGSDKIHHHHHHLTDLKDALRTEALDAGFAKMGVCSPNAVPETAARLKAFVDAGFHGQMGWMAERMHWRGDASALWPEAKSVVMLAEPYTPDSDPLDALARKDRATISVYAQGRDYHDLVKKRLKRVGRWLLAQCPGEQIKVFVDTAPVMEKPLAQAAGLGWQGKHTNLLARDLGNWVFLGAIFTTVELPIDEPEAEHCGSCTACLDICPTNAFPAPFQLDARKCISYLTIEHKGPVDLALRAKLGNRIYGCDDCLAVCPWNKFAQTARDIRYAPRDDLRSPLLADLAALDDAGFRARFSGSPIKRIGRDRFVRNILYAIGNSGQAKLVDAARPLTDDPDVAVADAARWAMERLL | not soluble
